First the molecules themselves.
B1: Protein GLUTAMINE DUMPER 1 (Arabidopsis thaliana (Mouse-ear cress)), O81775 (parent)
chain: MRPLSVQSKFEDVATSTSVNHHGVTPQSPWHSPVPYLFGGLAAMLGLIAFALLILACSYWRLSSSGEEDGQNVDEEKESRSGDKAANGAYEEKFLVIMAGEDLPRYLATPAMKKCTCGGHEGKMVISQEESVAKEEEKMREGEEEKVKDTGETTTTSH
partner: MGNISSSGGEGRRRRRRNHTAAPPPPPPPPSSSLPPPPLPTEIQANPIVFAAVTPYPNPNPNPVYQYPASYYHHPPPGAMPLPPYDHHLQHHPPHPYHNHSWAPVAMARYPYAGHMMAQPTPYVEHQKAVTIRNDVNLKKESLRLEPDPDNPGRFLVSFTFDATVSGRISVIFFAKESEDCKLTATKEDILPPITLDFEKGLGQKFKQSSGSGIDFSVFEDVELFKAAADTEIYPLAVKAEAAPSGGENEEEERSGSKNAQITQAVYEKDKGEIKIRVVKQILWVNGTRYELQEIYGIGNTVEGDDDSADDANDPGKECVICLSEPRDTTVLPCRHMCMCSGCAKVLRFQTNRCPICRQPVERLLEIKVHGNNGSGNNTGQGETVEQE
B2: Protein GLUTAMINE DUMPER 1 (Arabidopsis thaliana (Mouse-ear cress)), O81775 (parent)
chain: B1 chain
partner: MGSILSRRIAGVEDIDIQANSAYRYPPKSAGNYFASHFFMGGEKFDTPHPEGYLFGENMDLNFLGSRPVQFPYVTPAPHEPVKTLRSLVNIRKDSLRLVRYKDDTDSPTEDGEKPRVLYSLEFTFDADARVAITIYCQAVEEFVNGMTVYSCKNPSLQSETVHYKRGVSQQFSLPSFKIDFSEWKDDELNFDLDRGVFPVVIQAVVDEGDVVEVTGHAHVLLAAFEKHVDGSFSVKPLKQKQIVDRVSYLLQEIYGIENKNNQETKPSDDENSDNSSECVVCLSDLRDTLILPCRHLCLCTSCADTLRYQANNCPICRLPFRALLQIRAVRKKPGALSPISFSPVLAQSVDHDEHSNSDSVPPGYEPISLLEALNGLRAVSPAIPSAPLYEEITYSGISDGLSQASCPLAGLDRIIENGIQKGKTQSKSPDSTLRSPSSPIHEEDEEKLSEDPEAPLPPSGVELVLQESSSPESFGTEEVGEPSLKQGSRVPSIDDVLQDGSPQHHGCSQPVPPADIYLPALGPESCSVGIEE

Variants of B1 are the subject of one assay. Particulars: with lofg2_arath LOG2, Q9S752.
In the case of MRPLSVQSKFEDVATSTSVNHHGVTPQSPWHSPVPYLFGGLAAMLGLIAFALLILACSYWRLSSSGEEDGQNVDEEKESRSGDKAANGAYEEKFLVIMAREDLPRYLATPAMKKCTCGGHEGKMVISQEESVAKEEEKMREGEEEKVKDTGETTTTSH [G100R], the “effect of a mutation on the interaction” value is listed as “disrupting interaction”.

In a further assay the parent is B1. Particulars: with lofg2_arath LOG2, Q9S752. The source holds these as a separate data set.
With MRPLSVQSKFEDVATSTSVNHHGVTPQSPWHSPVPYLFGGLAAMLGLIAFALLILACSYWRLSSSGEEDGQNVDEEKESRSGDKAANGAYEEKFLFFFFFEDLPRYLATPAMKKCTCGGHEGKMVISQEESVAKEEEKMREGEEEKVKDTGETTTTSH [V96F;I97F;M98F;A99F;G100F], the “effect of a mutation on the interaction” value is “disrupting interaction”.

The variants in the next assay derive from B2. As to conditions: with mgrn1_rat Mgrn1, Q5XIQ4.
MRPLSVQSKFEDVATSTSVNHHGVTPQSPWHSPVPYLFGGLAAMLGLIAFALLILACSYWRLSSSGEEDGQNVDEEKESRSGDKAANGAYEEKFLVIMAREDLPRYLATPAMKKCTCGGHEGKMVISQEESVAKEEEKMREGEEEKVKDTGETTTTSH [G100R]: the “effect of a mutation on the interaction” value is given as “disrupting interaction”.

These data come from IntAct's records for PubMed 24036454.
